Laboratory results as given in the domain aggregation screens of Martell et al. (2025).

Assay: soluble fraction after stress (log2 fold change); higher = more stays soluble; pooled small domains, quantitative proteomics
Conditions: stress: 75 degC
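Further: 20 min heating vs room temperature control held 20 min.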

Sequence	soluble fraction (log2)
HMSLGSNISRLRAEKHLSQGDLAEALDVSRQSVSKWETDGSVPDLDKLVKLSRIFGVTLDELVTGTP	-0.039
HMSLIHEQSLKEIRIFINNLPESLRTAFTLREQDGLSYEEISKITDTPIGTVRSRIFRARESILEHINEEL	-2.25
HMSLLTPLEEARIVIEELIIPQKLTLDLLPQNSQIRKLQHEIINHYRLKGISIGDGKNRRVRIYS	-0.204
HMSLMHEESLKNIRRFINSLPESLRTAFTLREQDGLSYEEIGVITETPIGTVRSRIFRAREAILEHIKKEL	-2.39
HMSLMLYVEDVDTAFKKAIELGATEIRPVHDQFYGDRAGTLQDPFGHIWIIGTHKEDVSDEELNNRIGNI	0.104
HMSLPNNLIEQLQDPEPKARRRAVRRLAATRDPSAIPLLRNVYLQDGDDRVRDAAEAALVQFRAMQHN	-0.112
HMSLPTYVQISEAIARRITAGQWLDGERLPPERTMAAEFGVAVGTLRKALSRLQDQKLLRRLQGSGNYINI	-1.67
HMSLREKNKARTRTAILNAARDLAKQGQWDAITTRQIADAAGVSYQTLYNYYPSKASILVEMLL	-2.03
HMSLSDDIAQTLRQLGFDRDVSETLANDVLPAMPTRQDVIDLLGTLGIEKHVAADFANFVVLN	-0.964
HMSLSEYLSAPVLEGQRNHALFSAVMQAREQGWDEWQIRTTIGAKAEADGLRHAEIAATIRSAMSREITP	-0.314
HMSLSIKINHESVGLRLDQFLQEHYYKQQSRSYVQHAIKEGYILVNGQSVKNGYMLKLDDLIELEAI	-4.5
HMSLSNMIGKNIQWTHVTKTKDAEGNPKTNSETFAGNVRGVKVLNGKPMVVAQDAKGKLHEVEVSEIEAIA	0.0953
HMSLTEDELFHALTIYANREGINIGATELKYLLTHYARNLGKLIELINQVSQAATMQKKPITIPLIKHS	-0.411
HMSLTGFYNLTFKQADRLSVIDEAGEEVYKQAIAMGSTTKTIDLSALNAGVYFIRIYNGEVIAQEKIVLN	-0.933
HMSLTYTGKFILNHNNIDQSSFNINIYLVNKQTIIQITKPFYGNVLNIKFNEENDLIISPKQFS	-0.369
HMSMDPYTVLGVNKSSTDSQIKNAYKNLAKQHHPDRGGNEAKFKEISTAYEQIKTAEKRQQYDMSQQF	0.604
HMSMFAQQLKDLRKKIPGLTQTDMAKKLGIAKTTYASYEQGKRTPDIETQNKIADFFNVSLDYLHG	-0.302
HMSMFSEILRTLRKAKGLTQRELAGHLGVTQQMVAKWEKGQSTPGPDQLTRMAELLEVSTDTLLGR	-0.366
HMSMNSWFVEKERDNTRIDKFLNEQMADISRSYIQKLIKDDLVTVDLRPVKANYKVKEGDRVEVTLPEPV	0.000708
HMSMPTITLQHYKRGSHYYASIIETFRDPVTRKNSSRTLEALGDISEKMKEDPNYLQSLKDRVKALRSD	-0.899
HMSMSLQFLSRRIRLQREKRGLKQHDIAHALQISPQAVSKWERGENAPDIALLRPLAGLLGVSIDWLMGGD	-3.27
HMSNEEEIEGLVSKVLDNNPEIVERIRSGEDKLISYLVGEVMKQSSSSLNPGIVKEIIVNKTI	0.091
HMSNEITVPDLSGMSLEELETILSDRSLSYEIIDSIYNSTAKKGTVSSQDPLPDAKVKSGRTIYITVVSKL	-1.85
HMSNENIDQDELQAIIQKVLASNQDAVAKYKAGKTAVIGFLIGQVMRQLNKKIDVALAKKTLLVFLEK	-1.42
HMSNETKSAILNFAEKHHDFNIDDLFESLSKSMDINRSSLLWHLFKLVNSNVLIRTGRGMYAKV	-2.62
HMSNEVSYSDFVRSVESDEVNAVTLDGEQIRFVGNDGQTYSVIKPADAQITQLLIDNNVTVRAEQQ	0.123

Sequence	soluble fraction (log2)
HMSNEYLMPNLIGMSWDEAKSKYSQYMTLVPEQEWSEVTKDQIFDQEYPEGRKVKIGTEVTVKVSMGI	-0.654
HMSNFGALLRMRRLEAGLSYRGLAEQSGLARATLVNLEQGLTKPSPLTMRRLASVKALRLTEL	-3.17
HMSNFGERLRALRQDRQMTLQQASKVTGVAQSTLSKMENNQLSPTFNLMQKLAIGLGIDMPQLFAPVK	-0.642
HMSNGEWQQGSDGRWWYKFSDGTYPKNKVETIGGKKYGFDSEGWMLANTTKEFSGTTYSFGADGVATS	0.223
HMSNHYETLGVEQTASVDEIKKAYRRLSLQYHPDRNTTSDAVGKFQKINDAHEILSDKQSRTEYDMQLK	0.0273
HMSNIQLAANLQRLRKDHHFTQTQFSKKLNISRQAYSNYETGKRIPDLDIIIRIANIYHISLENLL	-0.305
HMSNKYYETILDWFKSQIMSGELKEGDTIPSERELATRFGVSRVPVREALRILEYIGIVSNTADGMTVQKV	-1.72
HMSNLKKRRLEKNLTLDDVGKLVGVSAATISRWESGDIENMRSDKIVKLANALEISPAVILGW	-0.0179
HMSNLLKNILDVLEKEGPLKARKIALLLDSTRTTITHTTINSELYKALDLEGLTKNEQNIWSYVT	0.145
HMSNLVEVPAVIGRMKEDAITMLISAGLEPAVTYDEYPLVKENLVADQSVAPGQKVEKGSFVTITVSRS	-0.0726
HMSNMESLIGREATVIEMIPAEDVGRVKIDGDEWQAVLAREDDNEPRRDIQVGEKVIIVSYDSIILTVKTK	0.0742
HMSNNENSILEKLNSFSGKKIKVSHTIGSLAARLDEYPKIKMWLYKRIRENSINEQAYKYLIFIIERKVR	-1.34
HMSNPADDVVDLLRQLRLPHMRAAAPELLATAKAQRWDPAEAIRALLTEELAGRQASSINARRK	-0.477
HMSNPPIRIGKKALHELLTTWLSLLSRDGVAYLVVQKNLGADSLTAWLRDQGFPSEKIASKKGFRIIEVH	-0.315
HMSNRDNPVVLDFKKVKSTEQLDNILEEYIRENFEGYTVKGRMFSSDEGKFIIALALKDDDGKRALVYFDV	-1.04
HMSNRIDKIKLNHWLNIRKTSLDVLNNLLSKHLNHKINFENLENLDEQAIEKISEVLSIPKNKLLINDDVP	-0.219
HMSNTVEDLIDDIGTVTKDSKDKIDAARKAYDGLTEDQKKLVPDSVLKTLTDAEAAYAKLTK	0.567
HMSNWYGTVVKIQPRPNAQAADTAVVKLLDGSEHRFPVWADHLTTIEVGSRLKKLSGGWDPVLMDPEETF	-0.669
HMSNWYKNNETDQIWWKDTPDSVGEWLFSFDKKQVFNMFADYPHNLTPEQKKIFDEENPEWSDRP	-0.351
HMSNYPYLLRTYEGKLAVFTDDLVQPDLVFDVYVRTLPELDQQQLSRGIRVKTYDELTSMIEDYI	-2.22
HMSPAVEDYLEQIHNLIAQKGYARVVDIAGNLKISQASVTNMIQRMDADGLVVYERYRGVVLTETGRK	-1.28
HMSPDLNEVEEKVFRALNGVESMHVNKLGIELNLPVSELFFTLLELEMKNVVKALPGGMYKL	-2.26
HMSPFYILDEVEAALDDTNLGRLLEIYEELRENSQLLVITHQKRTMEVGDALYGVTMRGDGVSAVISQRLR	0.306
HMSPKYLELVRWINTQIQEKKLTAGQKMYSENELKEMFGVSRQTVRHAISVLEGEGMIRRVRGSGTYINDN	-2.42
HMSPLALLTPRELDILRAMTAGASNKEIARQFAIAETTVKIHVQHILRKLDVTTRVHAAVMASESGL	-3.05
HMSPPALAVQRDGSNVQISWPGAEEGWRLESSAEPSGAAWDLIAQNPTPVGGRWTVSLTEPTGRRFYRLVK	-0.0804

Sequence	soluble fraction (log2)
HMSPSLVEAMRLRMYEMGLNQAKLSELLGVSPSRVSDYLTGRSEPTLKVARDISRKLNIDASIVLG	-1.68
HMSPSQFRSKSLLVEINFASRQMDGEILQGDYAGKRLSELTEAEVQELTAWLKQSDRESFVLLQAYLLRSG	-2.46
HMSPSSPNQILGQYPKTKNDIILSSGRYGPYLKYNKKNYSLGNNISVEKLSLEEAVKIIDLKDKK	-0.291
HMSPTDKATVNVYALNVRTGPGTNYKVLGSVIKGTELQVLGSSGKWLKVKYGNREAYVAGWLVK	-2.85
HMSPTEQEKIGLFIKKLREEKNLTQEAFASLLKTSQSAVARIESGNQNITIEQLMKIGEVLNHNIVSI	-0.212
HMSQDPLETYYPQWSAAVKQSNPDAEIIRDTDGKYYVEGMTKNRVAVIYENPHLVRLVNATTNVHVE	0.0377
HMSQDTLIGRVGVIVIGQARTGSPAQVRVKDGFGQTHYVMAEPDSEGVLKQGEAVLLVSLEGNTFKAILNP	-2.41
HMSQDVLLKRSGDQIEVKITEVGEDYLKYKKKGFENGPDFKINTSDVFMVTFANGEKMMFEES	-0.033
HMSQEAKLAMPVTDLRLSARTLNALELANIRTVRDLVSHTEEQLLELRNFGETALAEVKEKLAALGLRLGM	0.0588
HMSQESIMPNLVGSTEDEAKAIAVEYGFQLNVISRVNNSQYPAGVIIDQNVDEGVRIKAGYPVGVTIS	-0.237
HMSQIAENNQKYVGTIQKVLVEGTSKNNDDMLTGRTDSNKVVIFEGDKKLIGNMVELKIVSEHMWYLKGEL	-0.0812
HMSQISKLWRPSEDVTEILTRSGMDSEFLEGLIPEFIIYWSERADVLVSYNSKFIEHARLKWAQHSAEIKT	-4.48
HMSQLLHELLAHVLKDRIISGEWPAGSRIMSEHALQERYGVSRGTVRRALAQLVQEGLLVQRKGKGTFVTR	-2.59
HMSQLVTGVLRNLNDISEKIAAGKAVPEMLGRLENMQQMIANLKGNEGLIKSISILTRSAQDALR	-0.484
HMSQPLYWQIRRMVIDHDDANDVLQNTFIKAWSNIGSFRGDAKFSTWLYKIAVNESITFINKKKVQN	-0.44
HMSQPYFELAAADMEALRNALSTIREIESVVLSGKIFHVEVREDLDPGTMNKLAFERGITLTHLVKKKN	-2.89
HMSQRINLNSASIEDMQSLDISNEKIDSIIDYRNRYGNIHNIYELLKIPGITIGDIHSIRNAVTVEIPH	-0.104
HMSQSLSGWAAKDLEVKSGADASYRTVGRLPKGSKVSGKIINGYLHIEFDGSMRYVPVSGISKTE	-0.6
HMSQSYHLADRGQSLGTLDYQAVLVGLATGRLSPDTLSWQEGEAGWVALRQRPEFASGVSAVASL	0.404
HMSRAHTELEEKLLTMLEENDMTLPMRVISNIASRIEGIIIPEEKILEVLKKSYDRYREHQMD	-0.267
HMSRARSRQTSMLEAVAGLGPARRRALLKQFGGLQGVLRAGIEDLSRAPGIGPALAQAIFEHLHPGA	-0.482
HMSREQARRFYFDTWAKHRASQPLTDLEKIALTVMLLHPEYHSLLDKPDHYVDKDYSPEAGQTNPFLHM	-1.72
HMSRIDRKGLTSQIVNHLSKNPGKNFTLKQFFRNLKLNTHPLKMLAVDVLNKLLDTNFITRNEDGEFFLKA	0.154
HMSRLMIVTPDGRIMDDVPEFGEVRTTTDVNGRVLVLDRNNVVIGFEMTPREYRREFGRNPF	-1.12
